Measured values as given in paper PMC10820826 (The Journal of Biological Chemistry, 2023).
Read-outs that look alike come from different tables or passages of the source.

T1: Mint1 PTB domain (residues 448-623) (human, UniProt Q02410 448-623)
T1 construct: human Mint1 PTB domain, residues 448-623; pGEX6P-2; source: E. coli Rosetta BL21 (DE3), purified (glutathione-Sepharose, Prescission protease, gel filtration)
T1 sequence (looked up): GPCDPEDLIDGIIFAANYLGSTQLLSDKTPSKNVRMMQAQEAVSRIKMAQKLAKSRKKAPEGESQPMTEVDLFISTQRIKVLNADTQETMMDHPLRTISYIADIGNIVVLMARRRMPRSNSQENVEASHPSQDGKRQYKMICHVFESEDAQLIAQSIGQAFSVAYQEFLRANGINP


What was measured:
Conditions in all cases: both partners purified
Munc18-1-His [1] = biological target: T2, Munc18-1-His (rat, UniProt P61765 1-594)
T2 construct: Munc18-1 (STXBP1); also called Munc18a; STXBP1; source: E. coli Rosetta BL21 (DE3), purified to homogeneity as described by Hu et al

Munc18-1-His [2] = biological target: T2, Munc18-1-His; remark: listed apart in the source
Munc18-1 + Sx1a [3] = biological target: T3, Munc18-1 + Sx1a (rat, UniProt P61765 1-594; P32851 1-261); assay: pull-down; GST-Mint1 MID as bait, Munc18-1 in the presence of Sx1a; Coomassie-stained gel
T3 construct: Munc18-1 (STXBP1), as m1; also called Munc18-1 in the presence of Sx1a; source: mixed from the purified E. coli proteins m1 and m32

[4] = biological target: T1, Mint1 PTB domain (residues 448-623); assay: ITC; 25 °C, 50 mM Hepes, 200 mM NaCl, 0.5 mM TCEP, 5% glycerol; 1 mM peptide titrated into 50 μM Mint1 PTB domain; 1:1 binding model
Mint1 PTB + TJAP1 (9-22) = biological target: T4, Mint1 PTB + TJAP1 (9-22) (human, UniProt Q02410 448-623); assay: ITC; as a5, competition experiment with the other peptide (APP 750-769 or TJAP1 9-22) present with Mint1 PTB in the cell
T4 construct: human Mint1 PTB domain, residues 448-623, as m35; human tight junction-associated protein 1 residues 9-22, as m37; source: mixed from purified m35 and the synthetic peptide m37

Munc18-1 + Sx1a [5] = biological target: T3, Munc18-1 + Sx1a
Munc18-1-His [6] = biological target: T2, Munc18-1-His; remark: listed apart in the source
[7] = biological target: T5, Mint1 PTB + APP (750-769) (human, UniProt Q02410 448-623); assay: ITC; as a5, competition experiment with the other peptide (APP 750-769 or TJAP1 9-22) present with Mint1 PTB in the cell
T5 construct: human Mint1 PTB domain, residues 448-623, as m35; human amyloid precursor protein residues 750-769, as m36; source: mixed from purified m35 and the synthetic peptide m36

T2 sequence (P61765 whole entry): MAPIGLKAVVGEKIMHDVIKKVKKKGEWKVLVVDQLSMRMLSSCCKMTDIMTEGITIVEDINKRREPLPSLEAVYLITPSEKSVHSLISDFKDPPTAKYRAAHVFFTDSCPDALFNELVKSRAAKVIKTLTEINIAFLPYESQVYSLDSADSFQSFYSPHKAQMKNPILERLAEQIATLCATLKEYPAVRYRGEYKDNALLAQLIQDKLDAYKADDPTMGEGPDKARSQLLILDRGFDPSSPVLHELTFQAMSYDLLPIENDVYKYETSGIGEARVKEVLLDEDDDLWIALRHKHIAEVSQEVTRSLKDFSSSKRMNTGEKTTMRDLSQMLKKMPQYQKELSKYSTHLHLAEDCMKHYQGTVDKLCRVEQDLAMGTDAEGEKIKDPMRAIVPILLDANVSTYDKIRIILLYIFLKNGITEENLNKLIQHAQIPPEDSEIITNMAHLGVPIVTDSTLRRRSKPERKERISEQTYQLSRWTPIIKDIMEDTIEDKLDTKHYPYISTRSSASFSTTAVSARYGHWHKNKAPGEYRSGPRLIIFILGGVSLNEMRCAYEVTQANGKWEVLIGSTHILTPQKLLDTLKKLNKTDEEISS
T3 sequence (P61765 whole entry, chain 1 of 2): as the sequence (P61765 whole entry) above
T3 sequence (P32851 1-261, chain 2 of 2): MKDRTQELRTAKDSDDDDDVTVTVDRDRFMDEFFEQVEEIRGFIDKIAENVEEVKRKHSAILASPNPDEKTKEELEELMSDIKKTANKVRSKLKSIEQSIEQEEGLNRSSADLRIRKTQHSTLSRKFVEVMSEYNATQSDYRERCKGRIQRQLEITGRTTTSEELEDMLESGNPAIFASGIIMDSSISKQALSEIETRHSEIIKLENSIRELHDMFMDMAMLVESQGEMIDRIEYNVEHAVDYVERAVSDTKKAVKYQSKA

Row | Binder | Kd (Munc18-1-His [1]) [µM] | dH (Munc18-1-His [1]) [kcal/mol] | stoichiometry N (Munc18-1-His [1]) | other results
1 | PYPRMDEEEQEEDIDQIVAEVKQEMEEQEL (human Mint1 residues 257-286 with phosphomimetic Glu; source: synthetic peptide, bought: Genscript) [Mint1_3 peptide (257-286 phosphomimic)] | 14 | -6.5 | 1.1 | 
2 | GST-Mint1 (226-314) (MID) (domain or fragment, human, UniProt Q02410 226-314, looked up, human Mint1 (X11, APBA1) residues 226-314, the MID by the methods; it could also be 222-314; also called GST-Mint1 MID; source: E. coli Rosetta BL21 (DE3), purified (glutathione-Sepharose, Superdex 75)) YRQEALGARLHHYDERSDGESDSPEKEAEFAPYPRMDSYEQEEDIDQIVAEVKQSMSSQSLDKAAEDMPEAEQDLERPPTPAGGRPDSP |  |  |  | binding result (Munc18-1-His [2]): binds; binding result (Munc18-1 + Sx1a [3]): binds
3 | GST-Mint1 MID (residues 222-314) (domain or fragment, pGEX4T-2, codon optimised; The methods call 226-314 the MID; also called GST-Mint1 (222-314); source: E. coli Rosetta BL21 (DE3), purified (glutathione-Sepharose, gel filtration)) EAAAYRQEALGARLHHYDERSDGESDSPEKEAEFAPYPRMDSYEQEEDIDQIVAEVKQSMSSQSLDKAAEDMPEAEQDLERPPTPAGGRPDSP |  |  |  | binding result (Munc18-1-His [2]): binds
4 | SKMQQNGYENPTYKFFEQMQ (human amyloid precursor protein residues 750-769; also called APP NPxY peptide; source: synthetic peptide (solid phase synthesis in-house, reverse-phase HPLC)) [APP (750-769) peptide] |  |  |  | Kd [4]: 0.31 µM; dH [4]: -15.6 kcal/mol; stoichiometry N [4]: 1; Kd (Mint1 PTB + TJAP1 (9-22)): 0.58 µM; dH (Mint1 PTB + TJAP1 (9-22)): -11.8 kcal/mol; stoichiometry N (Mint1 PTB + TJAP1 (9-22)): 1
5 | MDSYEQEEDIDQIVAEVKQSMS (also called Mint1_1; Mint1 AHM peptide; source: synthetic peptide, bought: Genscript) [Mint1 (261-282) synthetic peptide] |  | -8.8 | 0.8 | dH (Munc18-1 + Sx1a [5]): -8.9 kcal/mol; stoichiometry N (Munc18-1 + Sx1a [5]): 1; dH (Munc18-1-His [6]): -7.9 kcal/mol; stoichiometry N (Munc18-1-His [6]): 1
6 | KPYRKAPPEHRELR (human tight junction-associated protein 1 residues 9-22; also called TJAP1 peptide; PILT; source: synthetic peptide (solid phase synthesis in-house, reverse-phase HPLC)) [TJAP1 (9-22) peptide] |  |  |  | Kd [4]: 20.9 µM; dH [4]: -8.9 kcal/mol; stoichiometry N [4]: 1; Kd [7]: 29.4 µM; dH [7]: -7.1 kcal/mol; stoichiometry N [7]: 1
7 | MDSYEQEEDIDQIVAEVKQS (source: synthetic peptide, bought: Genscript) [Mint1_7 peptide (261-280)] | 19.1 | -1.78 | 1 | 
8 | PYPRMDSYEQEEDIDQIVAEVKQSMSSQSL (human Mint1 residues 257-286; source: synthetic peptide, bought: Genscript) [Mint1_2 peptide (257-286)] | 26 | -4.21 | 1.3 | 
9 | EEDIDQIVAEVKQSMS (source: synthetic peptide, bought: Genscript) [Mint1_6 peptide (267-282)] | 4 | -1.29 | 1.2 | 

Further lines, with some results ahead:

Row | Kd (Munc18-1-His [1]) [µM] | dH (Munc18-1-His [1]) [kcal/mol] | stoichiometry N (Munc18-1-His [1]) | Binder | other results
10 | 23.1 | -1.2 | 1 | QEEDIDQIVAEVKQSMS (source: synthetic peptide, bought: Genscript) [Mint1_1c peptide (266-282)] | 
11 | 5.6 | -3.48 | 1.3 | EQEEDIDQIVAEVKQSMS (source: synthetic peptide, bought: Genscript) [Mint1_5 peptide (265-282)] | 
12 | 12.9 | -2.3 | 1.3 | SYEQEEDIDQIVAEVKQSMS (source: synthetic peptide, bought: Genscript) [Mint1_4 peptide (263-282)] | 
